Measurements: patent US20250326817A1 (LA JOLLA INSTITUTE FOR IMMUNOLOGY, published 2025)
Positions count from the first letter of the chain named. Names may count otherwise.

T1: single chain homotrimeric mouse LIGHT extracellular domain (G73-V239), N-terminal HHHHHHGG, joined by two … (mouse, UniProt Q9QYH9 73-239)
T1 construct: Soluble analyte of the Octet assay; from Expi293 cells; also called mLIGHT
T1 sequence: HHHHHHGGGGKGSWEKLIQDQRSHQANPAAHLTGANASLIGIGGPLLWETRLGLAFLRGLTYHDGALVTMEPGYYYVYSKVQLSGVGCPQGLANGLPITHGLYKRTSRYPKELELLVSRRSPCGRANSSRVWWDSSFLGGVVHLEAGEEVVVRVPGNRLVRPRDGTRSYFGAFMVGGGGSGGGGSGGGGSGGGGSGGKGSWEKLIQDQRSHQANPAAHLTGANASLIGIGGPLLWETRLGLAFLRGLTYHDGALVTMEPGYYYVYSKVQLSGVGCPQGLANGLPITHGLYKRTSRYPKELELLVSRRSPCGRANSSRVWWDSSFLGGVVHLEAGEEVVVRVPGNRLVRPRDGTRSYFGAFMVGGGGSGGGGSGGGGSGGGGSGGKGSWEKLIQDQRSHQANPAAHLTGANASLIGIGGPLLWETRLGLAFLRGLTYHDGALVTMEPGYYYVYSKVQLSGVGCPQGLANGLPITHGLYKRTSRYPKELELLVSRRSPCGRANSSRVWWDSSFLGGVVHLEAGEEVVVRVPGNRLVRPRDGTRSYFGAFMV

T2: mouse LIGHT, full length, on transfected cells (mouse, UniProt Q9QYH9 1-239)
T2 construct: whole, on cells; also called mLIGHT; mLIGHT-IRES-EGFP
T2 sequence (looked up): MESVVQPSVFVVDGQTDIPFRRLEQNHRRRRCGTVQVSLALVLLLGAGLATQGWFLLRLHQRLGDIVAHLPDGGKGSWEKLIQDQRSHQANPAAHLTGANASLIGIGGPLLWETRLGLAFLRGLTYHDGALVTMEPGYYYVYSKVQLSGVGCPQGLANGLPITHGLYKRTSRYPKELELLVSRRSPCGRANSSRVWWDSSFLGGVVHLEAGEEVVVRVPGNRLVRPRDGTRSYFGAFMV

T3: mouse BTLA, full length, fused to EGFP, on HEK293 FreeStyle cells (mouse, UniProt Q7TSA3 30-306)
T3 construct: whole, on cells; also called mBTLA; mBTLA-EGFP; not shown: EGFP fused at the C-terminus (pEGFP-N1 vector)
T3 sequence (looked up): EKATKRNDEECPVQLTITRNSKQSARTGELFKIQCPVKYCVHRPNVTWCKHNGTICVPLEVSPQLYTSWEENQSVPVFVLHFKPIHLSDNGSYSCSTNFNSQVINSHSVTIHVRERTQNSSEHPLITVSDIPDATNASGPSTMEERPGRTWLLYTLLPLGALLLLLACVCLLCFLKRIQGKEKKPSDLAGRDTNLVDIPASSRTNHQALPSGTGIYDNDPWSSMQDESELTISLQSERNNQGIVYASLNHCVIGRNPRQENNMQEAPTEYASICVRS

B1: mouse HVEM (Q39-Q206), wild type, fused to human IgG1 and a hexa-His tag (Fc fusion)
chain (part 1 of 2): QPSCRQEEFLVGDECCPMCNPGYHVKQVCSEHTGTVCAPCPPQTYTAHANGLSKCLPCGVCDPDMGLLTWQECSSWKDTVCRCIPGYFCENQDGSHCSTCLQHTTCPPGQRVEKRGTHDQDTVCADCLTGTFSLGGTQEECLPWTNCSAFQQEVRRGTNSTDTTCSSQ
chain (part 2 of 2): HHHHHH
notes: From Expi293 cells; also called mHVEM-hIgG1; mHVEMWT; not shown: human IgG1
B2: mouse HVEM (Q39-Q206) G72R-V74A fused to human IgG1 and a hexa-His tag, soluble form (Fc fusion)
chain (part 1 of 2): B1 chain (part 1 of 2) with G34R, V36A
chain (part 2 of 2): HHHHHH
notes: also called mHVEM^-BT/160; mHVEM-BT/160; not shown: human IgG1
B3: mouse CD160 residues I30-H154 with C-terminal HHHHHHGGGGSGLNDIFEAQKIEWHE, refolded from E. coli inclusion bodies (receptor)
chain: IHVTSSASQKGGRLDLTCTLWHKKDEAEGLILFWCKDNPWNCSPETNLEQLRVKRDPETDGITEKSSQLVFTIEQATPSDSGTYQCCARSQKPEIYIHGHFLSVLVTGNHTEIRQRQRSHPDFSHHHHHHHGGGGSGLNDIFEAQKIEWHE
modifications: biotin (mCD160-biotin in the cell staining assay; site not stated)
notes: range 30-154; also called mCD160; mCD160-biotin
B4: mouse BTLA, soluble protein (analyte of the Octet assay) (receptor, UniProt Q7TSA3 30-183, looked up)
chain: EKATKRNDEECPVQLTITRNSKQSARTGELFKIQCPVKYCVHRPNVTWCKHNGTICVPLEVSPQLYTSWEENQSVPVFVLHFKPIHLSDNGSYSCSTNFNSQVINSHSVTIHVRERTQNSSEHPLITVSDIPDATNASGPSTMEERPGRTWLLY
notes: The construct is not described; also called mBTLA; mBTLA-penta-His-tag
B5: mouse HVEM G72D, full length, fused to mCherry, on cells (receptor)
chain: QPSCRQEEFLVGDECCPMCNPGYHVKQVCSEHTDTVCAPCPPQTYTAHANGLSKCLPCGVCDPDMGLLTWQECSSWKDTVCRCIPGYFCENQDGSHCSTCLQHTTCPPGQRVEKRGTHDQDTVCADCLTGTFSLGGTQEECLPWTNCSAFQQEVRRGTNSTDTTCSSQVVYYVVSILLPLVIVGAGIAGFLICTRRHLHTSSVAKELEPFQEQQENTIRFPVTEVGFAETEEETASN
notes: also called mHVEM G72D; not shown: mCherry fused at the C-terminus (pmCherry-N1 vector)
B6: mouse HVEM V74D, full length, fused to mCherry, on cells (receptor)
chain: B5 chain with D34G, V36D
notes: also called mHVEM V74D; not shown: mCherry fused at the C-terminus (pmCherry-N1 vector)
B7: mouse HVEM L94D, full length, fused to mCherry, on cells (receptor)
chain: B5 chain with D34G, L56D
notes: also called mHVEM L94D; not shown: mCherry fused at the C-terminus (pmCherry-N1 vector)
B8: mouse HVEM R43D, full length, fused to mCherry, on cells (receptor)
chain: B5 chain with R5D, D34G
notes: also called mHVEM R43D; not shown: mCherry fused at the C-terminus (pmCherry-N1 vector)
B9: mouse HVEM H86D, full length, fused to mCherry, on cells (receptor)
chain: B5 chain with D34G, H48D
notes: also called mHVEM H86D; not shown: mCherry fused at the C-terminus (pmCherry-N1 vector)
B10: mouse HVEM L94A, full length, fused to mCherry, on cells (receptor)
chain: B5 chain with D34G, L56A
notes: also called mHVEM L94A; not shown: mCherry fused at the C-terminus (pmCherry-N1 vector)
B11: mouse HVEM G72R-V74A double mutein, full length, fused to mCherry, on cells (receptor)
chain: B5 chain with D34R, V36A
notes: also called mHVEM G72R-V74A; mHVEM^-BT/160; not shown: mCherry fused at the C-terminus (pmCherry-N1 vector)
B12: mouse HVEM M56D, full length, fused to mCherry, on cells (receptor)
chain: B5 chain with M18D, D34G
notes: also called mHVEM M56D; not shown: mCherry fused at the C-terminus (pmCherry-N1 vector)
B13: mouse HVEM L90A, full length, fused to mCherry, on cells (receptor)
chain: B5 chain with D34G, L52A
notes: also called mHVEM L90A; not shown: mCherry fused at the C-terminus (pmCherry-N1 vector)

Legend:
[1] = molecular target: T1, single chain homotrimeric mouse LIGHT …; experiment: Octet bio-layer interferometry, mHVEM-hIgG1 on the sensor, mLIGHT in solution
Excerpt: (§1) Error bars represent results from at least triplicates. […] Ligands BTLA, CD160 and LIGHT are modeled based on the HVEM structures and are shown as labeled surfaces.
(§2) The results were exported and then analyzed using Prism 5 (GraphPad Software). Final response curves were generated after subtracting the responses of the control groups.

[2] = molecular target: T1, single chain homotrimeric mouse LIGHT …; experiment: Octet bio-layer interferometry, mHVEM-hIgG1 on the sensor, LIGHT in solution
Excerpt: as §2

[3] = molecular target: B3; experiment: Octet bio-layer interferometry, mHVEM-hIgG1 on the sensor, mCD160 in solution
Excerpt: as §1, §2

[4] = molecular target: B4; experiment: Octet bio-layer interferometry, mHVEM-hIgG1 on the sensor, mBTLA in solution
Excerpt: as §1, §2

[5] = molecular target: B1; experiment: Octet bio-layer interferometry, mHVEM-hIgG1 on the sensor, CD160 in solution
Excerpt: as §2

[6] = molecular target: B1; experiment: Octet bio-layer interferometry, mHVEM-hIgG1 on the sensor, mCD160 in solution
Excerpt: as §1, §2

[7] = molecular target: B1; experiment: Octet bio-layer interferometry, mHVEM-hIgG1 on the sensor, BTLA in solution
Excerpt: as §2

[8] = molecular target: B1; experiment: Octet bio-layer interferometry, mHVEM-hIgG1 on the sensor, mBTLA in solution
Excerpt: as §1, §2

[9] = molecular target: T2, mouse LIGHT, full length, on …; experiment: flow cytometry, cell-cell interaction assay
Experimental: (§3) After 2˜3 days, the cells were harvested and diluted to […]. […] These cells were further recorded and analyzed by flow cytometry. […] The cells were incubated for 30 min with shaking at room temperature and washed once by PBS containing 0.2% BSA (PBS-BSA). The cells were re-suspended in 100 uL of PBS-BSA and analyzed by flow cytometry.

[10] = molecular target: T3, mouse BTLA, full length, fused to EGFP, …; experiment: flow cytometry, cell-cell interaction assay
Experimental: as §3

[11] = molecular target: B4; experiment: cell-protein flow cytometry (mHVEM-mCherry cells + mBTLA-His/anti-His green)
Experimental: as §3

[12] = molecular target: B3; experiment: cell-protein flow cytometry (mHVEM-mCherry cells + mCD160-biotin/streptavidin-AF488)
Experimental: as §3

[13] = molecular target: T2, mouse LIGHT, full length, on …; experiment: cell-cell flow cytometry (mHVEM-mCherry cells + mLIGHT-IRES-EGFP cells)
Experimental: as §3

[14] = molecular target: T3, mouse BTLA, full length, fused to EGFP, …; experiment: cell-cell flow cytometry (mHVEM-mCherry cells + mBTLA-EGFP cells)
Experimental: as §3

B1
Kd [1]: 16.2 nM | Kd [2]: 16.2 nM

B2
Kd [1]: 29.3 nM | Kd [2]: 29.3 nM | binding result [3]: no binding | binding result [4]: no binding

B3
Kd [5]: 11600 nM | Kd [6]: 11600 nM

B4
Kd [7]: 1100 nM | Kd [8]: 1100 nM

B5
binding result [9]: binds

B6
binding result [9]: binds

B7
binding result [10]: binds

B8
binding result [9]: binds | binding result [10]: binds

B9
binding result [10]: binds

B10
binding result [10]: binds

B11
binding result [11]: no binding | binding result [12]: no binding | binding result [13]: binds | binding result [14]: no binding

B12
binding result [9]: binds | binding result [10]: binds

B13
binding result [10]: binds
